Experimental data from US20120028912A1 (NEW YORK UNIVERSITY AND THE RESEARCH FOUNDATION OF THE …, published 2012).

What was measured:
[1] = molecular target: p300/CBP-associated factor (P/CAF), HA-tagged (human, UniProt Q92831 1-832); experiment: co-immunoprecipitation from cells with anti-FLAG (FLAG-Tat), western blot with anti-HA (HA-P/CAF)
[2] = molecular target: T1, N-terminal biotinylated and lysine-acetylated Tat peptide (Tat AcK50) (HIV-1); experiment: pull-down with the biotinylated Tat-K50ac peptide on streptavidin agarose, anti-GST Western blot
T1 construct: also called biotinylated and wild type Tat peptide; Tat peptide containing AcK50

[3] = molecular target: T1, N-terminal biotinylated and …; experiment: pull-down with the N-terminal biotinylated, lysine-acetylated Tat peptide on streptavidin agarose, anti-GST western blot
[4] = molecular target: T2, Tat AcK50 peptide SYGR-AcK-KRRQRC (SEQ ID NO:50) (HIV-1); experiment: NMR 2D 1H-15N HSQC
T2 construct: Synthetic peptide

B1: HIV-1 Tat protein, wild type (other)
chain: MEPVDPRLEPWKHPGSQPKTASNNCYCKRCCLHCQVCFTKKGLGISYGRKKRRQRRRAPQDSKTHQVSLSKQPASQPRGDPTGPKESKKKVERETETDPED
notes: also called Tat-KK; wild type Tat
B1: binds [1].

B2: CBP (1082-1317) (other)
chain: KKIFKPEELRQALMPTLEALYRQDPESLPFRQPVDPQLLGIPDYFDIVKNPMDLSTIKRKLDTGQYQEPWQYVDDVWLMFNNAWLYNRKTSRVYKFCSKLAEVFEQEIDPVMQSLGYCCGRKYEFSPQTLCCYGKQLCTIPRDAAYYSYQNRYHFCEKCFTEIQGENVTLGDDPSQPQTTISKDQFEKKKNDTLDPEPFVDCKECGRKMHQICVLHYDIIWPSGFVCDNCLKKTGR
notes: also called GST-fusion CBP bromodomain-containing construct, residues 1082-1317 (lane 4); not shown: GST tag and linker of the pGEX4T-3 vector
B2: no binding [2].

B3: TIF16 (702-812) (other)
chain: RKCERVLLALFCHEPCRPLHQLATDSTFSLDQPGGTLDLTLIRARLQEKLSPPYSSPQEFAQDVGRMFKQFNKLTEDKADVQSIIGLQRFFETRMNEAFGDTKFSAVLVEP
notes: also called GST-fusion TIF1b bromodomain construct, residues 702-812 (lane 5); not shown: GST tag and linker of the pGEX4T-3 vector
B3: no binding [2].

B4: TIF16 (624-812) (other)
chain: SATICRVCQKPGDLVMCNQCEFCFHLDCHLPALQDVPGEEWSCSLCHVLPDLKEEDGSLSLDGADSTGVVAKLSPANQRKCERVLLALFCHEPCRPLHQLATDSTFSLDQPGGTLDLTLIRARLQEKLSPPYSSPQEFAQDVGRMFKQFNKLTEDKADVQSIIGLQRFFETRMNEAFGDTKFSAVLVEP
notes: also called GST-fusion TIF1b bromodomain-containing construct, residues 624-812 (lane 6); the sheet prints 'TIF16'; not shown: GST tag and linker of the pGEX4T-3 vector
B4: no binding [2].

B5: GST-fusion bromodomain from TIF1 (other)
chain: KLSPANQRKCERVLLALFCHEPCRPLHQLATDSTFSLDQPGGTLDLTLIRARLQEKLSPPYSSPQEFAQDVGRMFKQFNKLTEDKADVQSIIGLQRFFETRMNEAFGDTKFSAVLVEP
notes: domain: bromodomain; also called bromodomain of TIF1; TIF1b
B5: no binding [3].

B6: HIV-1 Tat double mutant K50R/K51R (other)
chain: MEPVDPRLEPWKHPGSQPKTASNNCYCKRCCLHCQVCFTKKGLGISYGRRRRRQRRRAPQDSKTHQVSLSKQPASQPRGDPTGPKESKKKVERETETDPED
notes: also called Tat-RR; Tat K50R/K51R mutant protein
B6: no binding [1].

B7: bromodomain of P/CAF (residues 719-832 of SEQ ID NO:2) (other)
chain: SKEPRDPDQLYSTLKSILQQVKSHQSAWPFMEPVKRTEAPGYYEVIRFPMDLKTMSERLKNRYYVSKKLFMADLQRVFTNCKEYNAAESEYYKCANILEKFFFSKIKEAGLIDK
notes: also called P/CAF bromodomain; PCAF bromodomain
B7 showed a Kd [4] of roughly 20 µM.
